From US20190077860A1 (EISAI R AND D MANAGEMENT, published 2019)

T1: human EphB1 extracellular region-SEAP-His protein (human, UniProt P54762 18-540)
T1 construct: extracellular domain; also called hEphB1-SEAP-His
T1 sequence (looked up): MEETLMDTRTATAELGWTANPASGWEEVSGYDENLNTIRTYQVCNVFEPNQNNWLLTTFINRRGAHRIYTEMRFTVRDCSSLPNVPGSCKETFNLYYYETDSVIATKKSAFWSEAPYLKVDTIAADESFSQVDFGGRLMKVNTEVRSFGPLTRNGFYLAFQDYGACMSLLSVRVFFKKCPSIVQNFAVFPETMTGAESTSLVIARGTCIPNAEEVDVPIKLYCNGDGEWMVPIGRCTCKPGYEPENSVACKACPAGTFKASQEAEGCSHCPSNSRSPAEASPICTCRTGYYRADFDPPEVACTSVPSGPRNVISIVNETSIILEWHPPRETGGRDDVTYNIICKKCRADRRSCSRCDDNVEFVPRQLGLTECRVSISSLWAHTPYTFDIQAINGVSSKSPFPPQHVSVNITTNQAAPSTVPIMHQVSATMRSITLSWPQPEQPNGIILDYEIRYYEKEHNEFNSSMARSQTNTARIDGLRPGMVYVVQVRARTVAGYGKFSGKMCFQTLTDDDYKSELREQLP


Assays:
[1] = target: T2, human EphA4 extracellular region-SEAP-His protein (human, UniProt P54764 20-547); assay: SPR, Ab captured
T2 construct: also called hEphA4-SEAP-His
Protocol: The binding affinity of each anti-EphA4 monoclonal humanized antibody obtained in Example 16 for human EphA4 was determined by surface plasmon resonance (SPR) using Biacore T200 (GE Healthcare). First, for the assay of antibody A, a rat anti-mouse IgG₁ antibody produced with a conventional method by immunizing rat with mouse IgG₁ antibody was immobilized on sensor chip CM5. The immobilization of the rat anti-mouse IgG1 antibody on sensor chip CM5 was performed by the amine coupling method using N-hydroxysuccinimide (NHS) and N-ethyl-N′-(3-dimethylaminopropyl)carbodiimide hydrochloride (EDC). Ethanolamine was used in blocking (the sensor chip and the reagents for immobilization were all manufactured by GE Healthcare). The antibody was diluted with a buffer solution for immobilization (10 mM sodium acetate, pH 4.5) and immobilized on the sensor chip according to the protocol attached to Biacore T200. For the assay of each humanized monoclonal antibody, a protein A chip (GE Healthcare, 29-1383-03) was used. Antibody A or the humanized monoclonal antibody was diluted with a running buffer solution HBS-EP (GE Healthcare), injected onto only flow cell 2 for 120 seconds, and captured (captured amount: approximately 30 to 60 RU). Subsequently, human EphA4 extracellular region-SEAP-His protein serially diluted in the range of 50, 16.7, 5.6, 1.9, and 0.6 nM using HBS-EP was sequentially added from the lower toward higher concentration sides without regeneration operation. Binding reaction curves were sequentially observed at the time of the addition (association phase, for 120 sec) and after the completion of the addition (dissociation phase, for 900 sec). After the completion of each observation, the sensor chip was regenerated by the addition of 3 M MgCl₂ (for 60 sec) or 10 mM Glycine-HCl pH 1.5 (for 30 sec). The obtained binding reaction curves were subjected to fitting analysis with 1:1 binding models using software BIA evaluation attached to the system to calculate the affinity (KD=kd/ka) for human EphA4 (Table 6).

[2] = target: T2, human EphA4 extracellular …; assay: competition ELISA, competitor human Ephrin A5-Fc
Protocol: Each anti-EphA4 monoclonal humanized antibody obtained in Example 16 was evaluated for its inhibitory activity against the binding between human EphA4 and its human ligand according to the following steps. Each well of a 96-well plate (Nunc) was coated with an anti-alkaline phosphatase antibody (Thermo Fisher Scientific). After incubation overnight at 4° C., each well was blocked with 1% BlockAce (DS Pharma Biomedical) at room temperature for 1 hour. After washing with 0.05% Tween 20/PBS (Thermo Fisher Scientific) three times, the human EphA4 extracellular region-SEAP-His protein obtained by the method of Example 2 was added (final concentration: 10 nM) to each well and incubated at room temperature for 1 hour. After washing three times, a ligand and each serially diluted humanized antibody of antibody A (0, 0.003, 0.01, 0.03, 0.1, 0.3, 1, 3, 10, 30, 100, 300, 1000, and 3000 nM) were added to each well. The ligand used was biotinylated human Ephrin A5-Fc chimera (R&D Systems, final concentration: 0.7 nM). After incubation at room temperature for 1 hour and subsequent washing three times, horseradish peroxidase-labeled streptavidin (GE Healthcare) was added thereto and incubated at room temperature for 1 hour. After washing three times, a TMBZ (3,3′,5,5′-tetramethylbenzidine, Sigma-Aldrich) solution was added to each well and incubated at room temperature for 2 minutes. An equal amount of a reaction stopping solution (1N H₂SO₄, Wako Pure Chemical Industries) was added to each well. The absorbance at 450 nm was read using a microplate reader (PerkinElmer).

[3] = target: T1, human EphB1 extracellular …; assay: ELISA
Protocol: Each well of a 96-well plate (Nunc) was coated with a rabbit anti-6-His antibody (Bethyl Laboratories). Each well was […] After washing with 0.05% Tween 20/PBS (Nacalai Tesque) three times, the SEAP-His protein of human EphA1, EphA2, EphA3, EphA4, EphA5, EphA6, EphA7, EphA8, EphA10, EphB1, EphB2, EphB3, EphB4, or EphB6 was added (final concentration: 1 nM) to each well and incubated at room temperature for 1 hour. After washing three times, the humanized antibody was added to each well and incubated at room temperature for 1 hour. After washing three times, a horseradish peroxidase-labeled donkey […] antibody (Jackson ImmunoResearch Laboratories) was added thereto and incubated at room temperature for 1 hour. After washing three times, TMB Microwell Peroxidase Substrate System (Kirkegaard & Perry Laboratories (KPL)) was added to each well. After confirmation of moderate color development, an equal amount of a reaction stopping solution (1N H₂SO₄, Wako Pure Chemical Industries) was added to each well. The absorbance at 450 nm was read using a microplate reader (Thermo Fisher Scientific).

T2 sequence (P54764 20-547): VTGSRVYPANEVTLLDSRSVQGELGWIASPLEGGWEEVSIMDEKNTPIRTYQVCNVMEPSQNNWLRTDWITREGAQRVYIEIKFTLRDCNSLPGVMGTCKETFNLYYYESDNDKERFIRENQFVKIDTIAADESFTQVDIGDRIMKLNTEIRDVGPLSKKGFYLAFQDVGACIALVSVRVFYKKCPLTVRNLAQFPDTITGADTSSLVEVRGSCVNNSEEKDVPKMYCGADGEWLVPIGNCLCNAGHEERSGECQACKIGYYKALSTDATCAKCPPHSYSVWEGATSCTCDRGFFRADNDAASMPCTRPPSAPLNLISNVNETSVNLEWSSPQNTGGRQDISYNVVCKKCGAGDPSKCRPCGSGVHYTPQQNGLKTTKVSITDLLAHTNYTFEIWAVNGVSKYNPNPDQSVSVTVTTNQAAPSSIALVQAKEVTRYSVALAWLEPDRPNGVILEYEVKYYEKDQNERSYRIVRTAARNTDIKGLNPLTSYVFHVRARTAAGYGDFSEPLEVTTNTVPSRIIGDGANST

Binder | Kd [1] | koff [1] | kon [1] | IC50 [2] | A450 as % of hEphA4-SEAP-His [3]
humanized antibody No. 89 (antibody, human IgG1, kappa, human Ig kappa; also called L1-6/HA4) heavy: QIQLVQSGSELKKPGASVKVSCKASGYTFTDYSMHWVRQAPGQGLKWMGWINTETGEPTYAQGFTGRFVFSLDTSVSTAYLQISSLKAEDTAVYYCARIPLYYYGSRYWYFDVWGQGTTVTVSSASTKGPSVFPLAPSSKSTSGGTAALGCLVKDYFPEPVTVSWNSGALTSGVHTFPAVLQSSGLYSLSSVVTVPSSSLGTQTYICNVNHKPSNTKVDKRVEPKSCDKTHTCPPCPAPPAAAPSVFLFPPKPKDTLMISRTPEVTCVVVDVSHEDPEVQFNWYVDGVEVHNAKTKPREEQFNSTFRVVSVLTVVHQDWLNGKEYKCKVSNKGLPAPIEKTISKTKGQPREPQVYTLPPSREEMTKNQVSLTCLVKGFYPSDIAVEWESNGQPENNYKTTPPMLDSDGSFFLYSKLTVDKSRWQQGNVFSCSVMHEALHNHYTQKSLSLSPG light: DIQMTQSPSSLSASVGDRVTITCRASENIYRNLAWYQQKPGKAPQLLLYAATNLADGVPSRFSGSGSGTDYTLTISSLQPEDFATYYCQHFWGTPWTFGQGTKVEIKRTVAAPSVFIFPPSDEQLKSGTASVVCLLNNFYPREAKVQWKVDNALQSGNSQESVTEQDSKDSTYSLSSTLTLSKADYEKHKVYACEVTHQGLSSPVTKSFNRGEC | 1.3 nM | 0.00041 s⁻¹ | 310000 M⁻¹ s⁻¹ | 4.3 nM | 5.7%
humanized antibody No. 90 (antibody, human IgG1, kappa, human Ig kappa; also called L1-6/HK1) heavy: QVQLVQSGSELKKPGASVKVSCKASGYTFTDYSMHWVRQAPGQGLEWMGWINTETGEPTYADDFKGRFVFSLDTSVSTAYLQISSLKAEDTAVYYCARIPLYYYGSRYWYFDVWGQGTTVTVSSASTKGPSVFPLAPSSKSTSGGTAALGCLVKDYFPEPVTVSWNSGALTSGVHTFPAVLQSSGLYSLSSVVTVPSSSLGTQTYICNVNHKPSNTKVDKRVEPKSCDKTHTCPPCPAPPAAAPSVFLFPPKPKDTLMISRTPEVTCVVVDVSHEDPEVQFNWYVDGVEVHNAKTKPREEQFNSTFRVVSVLTVVHQDWLNGKEYKCKVSNKGLPAPIEKTISKTKGQPREPQVYTLPPSREEMTKNQVSLTCLVKGFYPSDIAVEWESNGQPENNYKTTPPMLDSDGSFFLYSKLTVDKSRWQQGNVFSCSVMHEALHNHYTQKSLSLSPG light: DIQMTQSPSSLSASVGDRVTITCRASENIYRNLAWYQQKPGKAPQLLLYAATNLADGVPSRFSGSGSGTDYTLTISSLQPEDFATYYCQHFWGTPWTFGQGTKVEIKRTVAAPSVFIFPPSDEQLKSGTASVVCLLNNFYPREAKVQWKVDNALQSGNSQESVTEQDSKDSTYSLSSTLTLSKADYEKHKVYACEVTHQGLSSPVTKSFNRGEC | 1.5 nM | 0.00055 s⁻¹ | 360000 M⁻¹ s⁻¹ | 4.5 nM | 4.9%
humanized antibody No. 91 (antibody, human IgG1, kappa, human Ig kappa; also called L1-6/HK2) heavy: QVQLVQSGSELKKPGASVKVSCKASGYTFTDYSMHWVRQAPGQGLKWMGWINTETGEPTYADDFKGRFVFSLDTSVSTAYLQISSLKAEDTAVYYCARIPLYYYGSRYWYFDVWGQGTTVTVSSASTKGPSVFPLAPSSKSTSGGTAALGCLVKDYFPEPVTVSWNSGALTSGVHTFPAVLQSSGLYSLSSVVTVPSSSLGTQTYICNVNHKPSNTKVDKRVEPKSCDKTHTCPPCPAPPAAAPSVFLFPPKPKDTLMISRTPEVTCVVVDVSHEDPEVQFNWYVDGVEVHNAKTKPREEQFNSTFRVVSVLTVVHQDWLNGKEYKCKVSNKGLPAPIEKTISKTKGQPREPQVYTLPPSREEMTKNQVSLTCLVKGFYPSDIAVEWESNGQPENNYKTTPPMLDSDGSFFLYSKLTVDKSRWQQGNVFSCSVMHEALHNHYTQKSLSLSPG light: DIQMTQSPSSLSASVGDRVTITCRASENIYRNLAWYQQKPGKAPQLLLYAATNLADGVPSRFSGSGSGTDYTLTISSLQPEDFATYYCQHFWGTPWTFGQGTKVEIKRTVAAPSVFIFPPSDEQLKSGTASVVCLLNNFYPREAKVQWKVDNALQSGNSQESVTEQDSKDSTYSLSSTLTLSKADYEKHKVYACEVTHQGLSSPVTKSFNRGEC | 1.3 nM | 0.00044 s⁻¹ | 330000 M⁻¹ s⁻¹ | 4.9 nM | 6.6%
humanized antibody No. 92 (antibody, human IgG1, kappa, human Ig kappa; also called L1-6/HK4) heavy: QIQLVQSGSELKKPGASVKVSCKASGYTFTDYSMHWVRQAPGQGLKWMGWINTETGEPTYADDFKGRFVFSLDTSVSTAYLQISSLKAEDTAVYYCARIPLYYYGSRYWYFDVWGQGTTVTVSSASTKGPSVFPLAPSSKSTSGGTAALGCLVKDYFPEPVTVSWNSGALTSGVHTFPAVLQSSGLYSLSSVVTVPSSSLGTQTYICNVNHKPSNTKVDKRVEPKSCDKTHTCPPCPAPPAAAPSVFLFPPKPKDTLMISRTPEVTCVVVDVSHEDPEVQFNWYVDGVEVHNAKTKPREEQFNSTFRVVSVLTVVHQDWLNGKEYKCKVSNKGLPAPIEKTISKTKGQPREPQVYTLPPSREEMTKNQVSLTCLVKGFYPSDIAVEWESNGQPENNYKTTPPMLDSDGSFFLYSKLTVDKSRWQQGNVFSCSVMHEALHNHYTQKSLSLSPG light: DIQMTQSPSSLSASVGDRVTITCRASENIYRNLAWYQQKPGKAPQLLLYAATNLADGVPSRFSGSGSGTDYTLTISSLQPEDFATYYCQHFWGTPWTFGQGTKVEIKRTVAAPSVFIFPPSDEQLKSGTASVVCLLNNFYPREAKVQWKVDNALQSGNSQESVTEQDSKDSTYSLSSTLTLSKADYEKHKVYACEVTHQGLSSPVTKSFNRGEC | 1.3 nM | 0.00043 s⁻¹ | 330000 M⁻¹ s⁻¹ | 3.5 nM | 6.9%
